The values below come from patent publication US20210060157A1 (published 2021).

Assay [1] concerns the target T1, human complement component C6 (human, UniProt P13671 22-934).
T1 construct: Protein was purified from human serum (113 kDa); biotinylated in the Fab ELISAs; also called human C6; hC6
The experiment in a line: SPR, Biacore 2000. Here is the method: (§1) Binding Kinetics: To investigate kinetics of 7E5 binding to C6, surface plasmon resonance measurement in a BIACORE 2000 (GE Healthcare) equipped with a research-grade CM5 sensor chip was used. The ligand (C6, 113 kDa) was immobilized using amine-coupling chemistry. The surface of flow cell two was activated for 7 minutes with a 1:1 mixture of 0.1 M NHS (N-hydroxysuccinimide) and 0.4 M EDC (3-(N,N-dimethylamino) propyl-N-ethylcarbodiimide) at a flow rate of 5 μl/min. The ligand at a concentration of 10 μg/ml in 10 mM sodium acetate, pH 5.0, was immobilized at a density of 955 RU. The surface was blocked with a 7 minute injection of 1 M ethanolamine, pH 8.0.
(§2) To collect kinetic binding data, the analytes (anti C6-antibodies, 150 kDa) in 10 mM HEPES, 150 mM NaCl, 0.005% P20, pH 7.4, were injected over the two flow cells at a flow rate of 30 μl/min and at a temperature of 25° C. The injected concentrations differ per antibody. Data were collected at a rate of 1 Hz. The complex was allowed to associate and dissociate for 90 and 300 seconds, respectively. The surfaces were regenerated with a 10 second injection of 0.1 M HCl. Duplicate injections (in random order) of each sample and a buffer blank were flowed over the two surfaces.
(§3) The data were fit to a simple 1:1 interaction model using the global data analysis option available within BiaEvaluation 4.1 software.

In assay [2] the target is T1, human complement component C6. The assay can be described thus: SPR, Biacore 2000, C6 amine-coupled to CM5 chip, antibody as analyte, 25 C, 1:1 model. The method, then:
as §1, §2, §3
Background: SPR reads the build-up and loss of mass on a sensor chip optically.

Assay [3] deals with T2, peptide 418 (human).
T2 construct: Synthesized and spotted on a membrane (peptide array)
T2 peptide: GSCQDGRQLEWGLERT
The experiment in a line: peptide array of overlapping 16mer C6 peptides on a membrane. Here is the method:
Peptide arrays were used to determine the epitope of 7E5 in human C6. Consecutive overlapping 16mer peptides (peptides 16 amino acids long, overlapping 14 amino acids) from the C6 protein sequence were synthesized and spotted in a grid pattern on a membrane. The membrane was then incubated with 7E5 antibody to detect which peptide was recognized by the antibody.

For assay [4], the target named is T3, peptide 420 (human).
T3 peptide: DGRQLEWGLERTRLSS
The experiment in a line: alanine scan on selected peptides (peptide array). The method, then:
Subsequently, an alanine scan (in which alanine is used to replace amino acids one by one) on selected peptides was performed to help pinpoint the epitope.

In assay [5] the target is T1, human complement component C6. The experiment in a line: SPR, Biacore 2000, derived from kd. The method, then:
as §1, §2, §3

The target is the same in assay [6]. The assay can be described thus: ELISA on biotinylated hC6 and Biacore 3000 off-rate screening of periplasmic extracts on immobilized hC6. Background: An ELISA detects its analyte on a solid surface through an enzyme-linked reagent.

Values joined by “and” are separate entries in the source; they are usually repeats but may differ in a detail not shown here. Identical values can stand only once. A value given as a limit tells only on which side of the number the result lay.

One may read the Kd as the equilibrium constant for the complex coming apart. Low readings indicate higher affinity, high ones lower affinity. What is called koff is the first-order rate constant of dissociation. For orientation: kon means the rate constant with which the complex forms.

T1 sequence (P13671 22-934 limits assumed): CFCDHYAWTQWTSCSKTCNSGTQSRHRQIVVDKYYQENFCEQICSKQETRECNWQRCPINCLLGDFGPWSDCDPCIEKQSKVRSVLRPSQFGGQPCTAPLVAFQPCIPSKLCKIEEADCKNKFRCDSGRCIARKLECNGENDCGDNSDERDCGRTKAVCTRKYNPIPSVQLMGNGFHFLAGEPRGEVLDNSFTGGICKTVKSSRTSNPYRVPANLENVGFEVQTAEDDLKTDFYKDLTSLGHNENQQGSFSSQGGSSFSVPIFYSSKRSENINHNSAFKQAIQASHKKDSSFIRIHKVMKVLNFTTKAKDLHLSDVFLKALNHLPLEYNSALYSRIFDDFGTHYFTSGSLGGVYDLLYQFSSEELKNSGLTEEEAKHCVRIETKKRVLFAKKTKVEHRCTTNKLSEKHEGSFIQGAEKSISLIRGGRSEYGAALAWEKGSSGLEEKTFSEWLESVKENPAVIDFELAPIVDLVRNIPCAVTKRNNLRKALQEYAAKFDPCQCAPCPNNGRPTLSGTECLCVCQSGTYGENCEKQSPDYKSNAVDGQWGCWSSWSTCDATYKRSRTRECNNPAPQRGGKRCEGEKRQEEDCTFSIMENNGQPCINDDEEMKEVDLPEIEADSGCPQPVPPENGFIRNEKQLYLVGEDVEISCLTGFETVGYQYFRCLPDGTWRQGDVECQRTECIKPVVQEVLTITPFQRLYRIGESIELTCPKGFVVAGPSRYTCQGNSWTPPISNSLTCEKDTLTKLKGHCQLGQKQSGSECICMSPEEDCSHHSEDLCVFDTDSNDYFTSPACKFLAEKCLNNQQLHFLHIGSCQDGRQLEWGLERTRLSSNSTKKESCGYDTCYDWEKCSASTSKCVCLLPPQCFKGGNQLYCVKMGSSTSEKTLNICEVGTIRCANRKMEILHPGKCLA

B1: rat anti-human C6 monoclonal antibody 7E5 (antibody, V domains shown)
VH: EVQLVESDGGLVQPGGSLKLSCVASGFSFSDYYMAWVRQGPTKGLEWVATINYDGSSTYYRESVKGRFTISRDNAKRTLYLQMDSLRSEDTATYYCSRPSTEALFAYWGHGTLVTVSS
VL: DVVLTQTPSTLSATIGQSVSISCRSSQSLLNDVGNTYLYWYLQRPGQSPQLLIYLVSDLGSGVPNRFSGSGSGTDFTLKISGVEAEDLGIYYCMQASHAPYTFGAGTNLELK
notes: Whole antibody (150 kDa analyte in SPR) from a rat hybridoma; also called 7E5 mAb; supernatant #11
With B1, the “half-life of the 7E5-C6 complex” value in assay [1] is above 40 h. In assay [2], this molecule came in with a Kd of 253 pM, a koff of 4.27e-06 s⁻¹ and an on-rate constant (kon) of 16900 M⁻¹ s⁻¹. Further, in assay [3], the binding result is listed as “binds”. In addition, the binding result in assay [4] is “binds”. For the same molecule, in assay [5], the “t1/2 (complex half life)” value is 45 h and 45.1 h.

B2: humanized 7E5 Fab 7F06 (Fab, V domains shown)
VH: EVQLVESGGGLVQPGGSLKLSCAASGFTFRDYYMAWVRQGPGKGLEWVATINYDGSSTYYRESVKGRFTISRDNAKNSLYLQMDSLRAEDTAVYYCARPSTEALFAYWGHGTLVTVSS
VL: DVVLTQTPLTLSVTPGQPVSISCRSSQSLLNDVGNTYLYWYLQKPGQSPQLLIYLVSDLGSGVPNRFSGSGSGTDFTLKISRVEAEDVGVYYCMQASHAPYTFGAGTRLELK
notes: also called 7F6
B2: the binding result in assay [6] was “binds”.

B3: humanized 7E5 Fab 7E11 (Fab, V domains shown)
VH: EVQLVESGGGLVQPGGSLRLSCVASGFTFSDYYMAWVRQAPGKGLEWVATINYDGSSTYYRESVKGRFTISRDNAKNTLYLQMDSLRAEDTAVYYCARPSTEALFAYWGQGTLVTVSS
VL: DIVLTQTPLSLSATPGQSVSISCRSSQSLLNDVGNTYLYWYLQRPGQSPQLLIYLVSDLGSGVPDRFSGSGSGTDFTLKISRVEAEDVGVYYCMQASHAPYTFGAGTNLEIK
Take B3: the binding result in assay [6] was “binds”.

B4: humanized 7E5 Fab 7F11 (Fab, V domains shown)
VH: EVQLVESDGGLVQPGGSLKLSCAASGFTFSDYYMAWVRQGPTKGLEWVATINYDGSSTYYRESVKGRFTISRDNAKNTLYLQMNSLRAEDTAVYYCSRPSTEALFAYWGHGTLVTVSS
VL: DVVLTQTPSTLSVTPGQPVSISCRSSQSLLNDVGNTYLYWYLQKPGQSPQLLIYLVSDLGSGVPNRFSGSGSGTDFTLKISGVEAEDVGVYYCMQASHAPYTFGAGTRLEIK
Regarding B4, the binding result in assay [6] is “binds”.

B5: humanized 7E5 Fab 8F07 (Fab, V domains shown)
VH: EVQLVESGGGLVQPGGSLRLSCAASGFSFSDYYMAWVRQGPGKGLEWVATINYDGSSTYYRESVKGRFTISRDNAKNTLYLQMNSLRSEDTATYYCARPSTEALFAYWGHGTLVTVSS
VL: DVVLTQTPLTLSVTPGQSVSISCRSSQSLLNDVGNTYLYWYLQKPGQSPQLLIYLVSDLGSGVPDRFSGSGSGTDFTLKISGVEAEDVGVYYCMQASHAPYTFGAGTKLEIK
notes: also called 8F7
Regarding B5, the binding result in assay [6] is recorded as “binds”.

B6: humanized 7E5 Fab 7F02 (Fab, V domains shown)
VH: EVQLVESGGGLVQPGGSLKLSCAASGFTFSDYYMAWVRQGPGKGLEWVATINYDGSSTYYRESVKGRFTISRDNAKNSLYLQMNSLRSEDTAVYYCARPSTEALFAYWGHGTLVTVSS
VL: DVVMTQTPSTLSATPGQSASISCRSSQSLLNDVGNTYLYWYLQKPGQSPQLLIYLVSDLGSGVPNRFSGSGSGTDFTLKISRVEAEDVGIYYCMQASHAPYTFGAGTRLELK
notes: also called 7F2
B6: the binding result in assay [6] is given as “binds”.

B7: humanized 7E5 Fab 7E12 (Fab, V domains shown)
VH: EVQLVESDGGLVQPGGSLKLSCAASGFTFSDYYMAWVRQGPGKGLEWVATINYDGSSTYYRESVKGRFTISRDNAKNTLYLQMNSLRAEDTATYYCARPSTEALFAYWGHGTLVTVSS
VL: DVVLTQTPSTLSVTPGQPASISCRSSQSLLNDVGNTYLYWYLQKPGQSPQLLIYLVSDLGSGVPNRFSGSGSGTDFTLKISRVEAEDVGIYYCMQASHAPYTFGQGTNLEIK
Take B7: the binding result in assay [6] was “binds”.

B8: humanized 7E5 Fab 8G09 (Fab, V domains shown)
VH: EVQLVESDGGLVQPGGSLRLSCVASGFTFSDYYMAWVRQAPGKGLEWVATINYDGSSTYYRESVKGRFTISRDNAKRTLYLQMDSLRAEDTAVYYCARPSTEALFAYWGQGTLVTVSS
VL: DIVLTQTPLTLSVTPGQSVSISCRSSQSLLNDVGNTYLYWYLQKPGQSPQLLIYLVSDLGSGVPNRFSGSGSGTDFTLKISRVEAEDVGVYYCMQASHAPYTFGAGTRLEIK
Turning to B8, the binding result in assay [6] is on record as “binds”.
